In this experiment the target is human IL-2 (human, UniProt P60568 21-153). The experiment can be described thus: FACS.

Where “and” joins values, the source holds several entries; their conditions need not be identical. Identical values can stand only once.

B1: yeast-displayed 602 scFv (scFv, V domains shown)
VH: EVQLQESGPGLVAPSQSLSITCTVSGFSLTNYDISWIRQPPGKGLEWLGVIWTGGGTNYNSGFMSRLSITKDNSKSQVFLKMNSLQTDDTAIYYCVRQGRTPYWGQGTLVTVSA
VL: DIQVTQSPSSLSVSLGDRVTITCKASKDIYNRLAWYQQKPGNAPRLLISGATSLETGVPSRFSGSGSGKDYTLTITSLQTEDVATYYCQQFWGTPYTFGGGTKLEIK
Consider B1, for which the EC50 is 13.3 nM and 12.2 nM.

Source of the values: paper PMC11457862 (2024).
